Source: patent US20210024607A1, “EXPRESSION VECTORS FOR CHIMERIC ENGULFMENT RECEPTORS, GENETICALLY MODIFIED HOST CELLS, AND USES THEREOF” (CERo Therapeutics, Inc., priority 2018, published 2021)

Key:
[1] = tested on: HPV+ SCC152 head and neck cancer cells; test: FACS phagocytosis assay with pHrodo-labeled SCC152 cells; assay type: cell-based, human; conditions: CellTrace-violet labeled T cells, compared with mock transduced T cells
Method: CellTrace-violet labeled mock transduced, HPV E7-TCR transduced T cells, and HPV E7-TCR/CER29 tandem expression cassette transduced T cells were co-cultured pHrodo-red labeled HPV+SCC152 head and neck cancer cells.
The ability of CER modified-T cells to engulf target cells and recapitulate engulfment-signaling events was evaluated in co-culture assays. T cells were transduced with a nucleic acid encoding HPV E7 specific TCR (polypeptide sequence comprising SEQ ID NO:158) or tandem expression cassette encoding HPV E7 specific TCR+ CER29 (polypeptide sequence comprising SEQ ID NO:169). pHrodo-labeled HPV+ SCC152 head and neck cancer cells were co-incubated with mock transduced T cells, HPV E7 TCR transduced T cells, or HPV E7 TCR/CER29-transduced T cells.

[2] = tested on: phosphatidylserine-coated beads; test: Phagocytic uptake of phosphatidylserine-coated latex beads; assay type: cell-based, human; conditions: 30 minutes incubation, transduced CD8+ T cells
From the text: Streptavidin coated latex beads were bound with biotin-phosphatidylserine and used for phagocytosis assays.

B1: HPV16 E7 TCR: HPV16 E7 specific TCR (WO2015/184228), SEQ ID NO:90; control transduced alone into T cells (protein)
chain: MAPGLLCWALLCLLGAGLVDAGVTQSPTHLIKTRGQQVTLRCSPKSGHDTVSWYQQALGQGPQFIFQYYEEEERQRGNFPDRFSGHQFPNYSSELNVNALLLGDSALYLCASSLGWRGGRYNEQFFGPGTRLTVLEDLRNVTPPKVSLFEPSKAEIANKQKATLVCLARGFFPDHVELSWWVNGKEVHSGVCTDPQAYKESNYSYCLSSRLRVSATFWHNPRNHFRCQVQFHGLSEEDKWPEGSPKPVTQNISAEAWGRADCGITSASYQQGVLSATILYEILLGKATLYAVLVSTLVVMAMVKRKNSRAKRSGSGATNFSLLKQAGDVEENPGPMWGVFLLYVSMKMGGTTGQNIDQPTEMTATEGAIVQINCTYQTSGFNGLFWYQQHAGEAPTFLSYNVLDGLEEKGRFSSFLSRSKGYSYLLLKELQMKDSASYLCASVDGNNRLAFGKGNQVVVIPNIQNPEPAVYQLKDPRSQDSTLCLFTDFDSQINVPKTMESGTFITDKCVLDMKAMDSKSNGAIAWSNQTSFTCQDIFKETNATYPSSDVPCDATLTEKSFETDMNLNFQNLLVIVLRILLLKVAGFNLLMTLRLWSS
modifications: HPV16 E7 TCRbeta chain-P2A-TCRalpha chain
notes: control transduced alone into T cells
- phagocytosis of pHrodo-labeled SCC152 cells by FACS [1]: no difference in phagocytosis between mock-transduced T cells and E7 TCR transduced T cells
- uptake of phosphatidylserine-coated latex beads [2]: do not exhibit uptake of latex beads coated with phosphatidylserine
